pIC50, pKd: −log10 of the molar value.
Key:
human VEGF-121 (human) [1] = target: human VEGF-121 (human) (UniProt P15692); assay: magnetic-bead partitioning binding assay read by flow cytometry; bound fraction against VEGF-121 concentration (1e-12 to about 1e-8 M), Langmuir one-site fit; how Lucentis was immobilised is not described
human VEGF-121 (human) [2] = target: human VEGF-121 (human) (UniProt P15692); assay: receptor competition assay: His-tagged human VEGF-121 (0.1 nM) on beads with 1 nM human VEGF Receptor 1 and varied Lucentis; bound receptor fraction by flow cytometry, dose-response inhibition fit; blocked partner: VEGF Receptor 1
human VEGF-121 (human) [3] = target: human VEGF-121 (human) (UniProt P15692); assay: receptor competition assay: His-tagged human VEGF-121 (0.1 nM) on beads with 1 nM human VEGF Receptor 2 and varied Lucentis; bound receptor fraction by flow cytometry, dose-response inhibition fit; blocked partner: VEGF Receptor 2

Sequence of human VEGF-121 (human) (P15692 other isoform, or with tags, fused parts or gaps limits assumed): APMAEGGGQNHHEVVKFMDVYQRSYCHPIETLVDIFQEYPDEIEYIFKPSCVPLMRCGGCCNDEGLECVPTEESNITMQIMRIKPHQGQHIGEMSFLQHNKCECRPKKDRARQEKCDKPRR

pKd (human VEGF-121 (human) [1]): 8.77
pIC50 (human VEGF-121 (human) [2]): 8.25
pIC50 (human VEGF-121 (human) [3]): 8.63
Substance: Lucentis® (Fab)

— patent publication US20220073922A1
